According to patent US9340588B2, “Peptide secreted by Lactobacillus plantarum with immunomodulating function” (Imperial Innovations Limited, priority 2011, dated 2016):

B1: ST peptide: Peptide of 73 amino acids rich in serine and threonine, derived from protein D1 secreted by Lactobacillus plantarum; SEQ ID NO: 1 (protein, listed as Lactobacillus plantarum)
chain: GEVDGDSTTTTSTSTQTTQQTTTTQSSAQTSQTQAQPSQASQTQSSQTQTSKPAAQTTQTSSSTSNYHHHHHH
modifications: (1)..(73) ST peptide sequence

Tests used:
[1] = system: enriched dendritic cells from human blood (LDCs); test: Surface marker expression on blood-enriched dendritic cells (LDCs), flow cytometry; assay type: cell-based; conditions: for activation molecule CD83 on DCs / co-stimulating molecule CD40 on DCs / induction of MHC type II molecules (HLA-DR) on DCs: ST peptide 0.1-10 μg/mL or LPS 100 ng/mL, FIG. 5 panel B
Source text: (§1) The dendritic cells were obtained from healthy patients who had neither autoimmune diseases, nor inflammatory diseases nor allergies nor malignant tumors. These subjects had given their written consent for their blood to be used for scientific purposes. The peripheral blood mononuclear cells (PBMCs) were isolated by differential centrifugation in Ficoll-Paque Plus (Amersham Biosciences, Chalfont St. Giles, UK). The cellular fraction LDC (low-density cells) was obtained by overnight centrifugation in NycoPrepe™ solution. The cells present in this LDC fraction were HLA-DR positive in 98-100% of cases, with morphological characteristics typical of the DCs (Ng, et al. (2009). A novel population of human CD56+ human leukocyte antigen D-related (HLA-DR+) colonic lamina propria cells is associated with inflammation in ulcerative colitis. Clin. Exp. Immuno1.158, 205-218).
(§2) Half a million LDCs per milliliter were cultured in complete medium (Dutch modified RPMI 1640 (Sigma-Aldrich, Dorset, UK) containing 100 U/mL penicillin/streptomycin, 2 mM L-glutamine, […] gentamicin (Sigma-Aldrich) and fetal bovine serum at 10% (v/v) (TCS cellworks, Buckingham, UK)). These cultures were carried out in the presence of the ST peptide identified as SEQ ID NO: 1 purified at concentrations of 10 μg/mL, 1 μg/mL and 0.1 μg/mL, and of LPS (100 ng/mL) (Sigma-Aldrich, St. Louis, USA) as positive control. The results were compared with parallel cultures without ST peptide identified as SEQ ID NO: 1 nor added LPS, acting as negative controls.
For the various experiments, labeling of the cells with the various antibodies (Table 1) was carried out in PBS supplemented with 1 mM EDTA and sodium azide at 0.02% (w/v) (FACS buffer). Labeling was carried out for 20 minutes in ice, in the dark. The cells were then washed with FACS buffer and were fixed with paraformaldehyde at 1% (v/v) in saline solution, and stored at 4° C. until acquisition of data in the flow cytometer. The negative controls used were isotype-matched antibodies without specificity, labeled with the same fluorochrome, which were obtained from the same company (isotype controls).
(§3) The flow cytometry data were obtained in a FACSCalibur cytometer (BD Biosciences), and the data were analyzed with the WinList 5.0 software (Verity, Me., US). The proportion of samples positive for a particular marker was determined relative to isotype controls. For quantification by histograms, an analysis was performed with the WinList software, in which the histogram of isotype staining was subtracted from the histogram of specific staining using normalized superenhanced Dmax (SED) substraction (Bagwell, C. B. (2005). Hyperlog—a flexible log-like transform for negative, zero, and positive valued data. Cytometry. 64, 34-42).

[2] = system: enriched dendritic cells from human blood (LDCs); test: Intracellular cytokine production in blood-enriched dendritic cells (LDCs), monensin 4 h, flow cytometry; assay type: cell-based; conditions: ST peptide 0.1-10 μg/mL, 4 h monensin window, FIG. 6
Source text: as §1
as §2, with “The results were compared with parallel cultures without ST peptide identified as SEQ ID NO: 1 nor added LPS, acting as negative controls.” left out
as §3
The DCs were cultured for 4 hours in the presence/absence of monensin. […] This protocol has been extensively validated by our colleagues (Hart et al., (2005) Characteristics of intestinal dendritic cells in inflammatory bowel diseases. Gastroenterology. 129, 50-65) and makes it possible to quantify changes in the natural production of cytokines by the DCs in the absence of external stimuli such as PMA and/or ionomycin. Using this approach, the intracellular content of each cytokine is not determined. Instead, the changes induced in the production of cytokines in a temporal window of 4 hours (incubation time with monensin) are determined independently of the initial content of cytokines.

[3] = system: dendritic cells from colon mucosa biopsies (intestinal DC); test: Intracellular cytokine production in dendritic cells from colon mucosa biopsies; assay type: cell-based, human
Method: The DCs were cultured for 4 hours in the presence/absence of monensin. Then they were stained for the surface markers as described above. Next they were fixed with LeucopermA, and permeabilized with LeucopermB before adding the intracellular staining antibodies. After incubation, the DCs were washed in FACS buffer, were fixed and were acquired as described above. The analysis was performed by the SED substraction detailed above, where the histogram of each cytokine of the DCs that had not been incubated with monensin were subtracted from the histogram of each cytokine of the DCs that had been incubated in the […] of monensin. This protocol has been extensively validated by our colleagues (Hart et al., (2005) Characteristics of intestinal dendritic cells in inflammatory bowel diseases. Gastroenterology. 129, 50-65) and makes it possible to quantify changes in the natural production of cytokines by the DCs in the absence of external stimuli such as PMA and/or ionomycin. Using this approach, the intracellular content of each cytokine is not determined. Instead, the changes induced in the production of cytokines in a temporal window of 4 hours (incubation time with monensin) are determined independently of the initial content of cytokines.
Biopsies from the colon were obtained from three healthy patients, who had given their written consent to participate in this study (one woman and two men, age range 30-58 years). These patients had normal intestines, both macroscopically and histologically, and had been examined after reporting changes in intestinal transit or rectal bleeding. Once obtained, the biopsies were collected in complete medium cooled to 4° C. and were processed before the first hour counting from when they were obtained. The biopsies were incubated in Hanks's balanced salt solution (HBSS) (Gibco BRL, Paisley, Scotland, UK) containing 1 mM dithiothreitol (DTT) (Sigma-Aldrich) for 20 minutes. Next, they were incubated in a 1 mM solution of ethylenediaminetetraacetic acid (EDTA) in order to remove both the epithelial cells and the layer of mucus and its associated bacteria. […] The cellular suspensions of mononuclear cells of the lamina propria (200000 cells/mL) were incubated for 4 hours in the presence of the ST peptide identified as SEQ ID NO: 1 purified (10 μg/mL) and in the presence/absence, in its turn, of monensin, with their corresponding negative controls. The DCs of the lamina propria were identified by flow cytometry from the presence of the markers HLA-DR+ and CD3-CD14-CD16-CD19-CD34- (Hart et al. (2005) Characteristics of intestinal dendritic cells in inflammatory bowel diseases. Gastroenterology, 129, 50-65).
The remaining procedures followed in this example were the same as in section 1 of example 1.

[4] = system: T lymphocytes stimulated by enriched dendritic cells from blood (LDC); test: T lymphocytes stimulated with blood LDCs conditioned with ST peptide: homing markers and cytokines; assay type: cell-based, human
Method: (§4) The T lymphocytes were obtained from peripheral blood mononuclear cells (PBMCs). The PBMCs, obtained from freshly drawn blood as described in example 1, were resuspended in MiniMACs buffer (PBS supplemented with bovine serum albumin 0.5% (w/v) and EDTA 2 mM). This suspension was enriched with T cells by removing the CD14 positive, CD19 positive and HLA-DR positive cells with immuno-magnetized beads (Miltenyi Biotech, Bisley, UK) following the manufacturer's instructions. A percentage of T cells of 94.91%±1.06 (mean±standard deviation) was obtained as the mean value of all the extractions/enrichments.
(§5) The T cells were labeled with 5-carboxyfluorescein diacetate succinimidyl ester (CFSE, Invitrogen Ltd, UK) according to the manufacturer's instructions. The T cells thus labeled (4×10^5 cells per well) were incubated for 5 days with DCs at 0, 1, 2 or 3% in microtiter plates with U-shaped bottom. The proliferating T cells were identified and quantified by flow cytometry as those that contained a small amount of CFSE (CFSE^low) (FIG. 8).
The remaining flow cytometry protocols were carried out as described in section 1 of example 1.

[5] = system: T lymphocytes stimulated by enriched dendritic cells from colon biopsies (gut DC); test: T lymphocytes stimulated with intestinal mucosa DCs conditioned with ST peptide: homing markers and cytokines; assay type: cell-based, human; conditions: T cells stimulated with gut DCs pulsed with ST peptide, vs basal gut DC
Method: as §4, §5
This example is the same as the preceding example, except in this case DCs isolated from intestinal mucosa were used.

[6] = colon biopsies of healthy patients, ST peptide 10 μg/mL, 4 h, FIG. 7
[7] = single donor with abnormal IL-12 production, FIG. 14
[8] = T cells co-incubated with LDCs pre-incubated with ST peptide, FIGS. 10 and 11
[9] = T cells incubated 5 days with LDCs pre-incubated with ST peptide, FIG. 9
[10] = ST peptide 0.1, 1 or 10 μg/mL, FIG. 5

| Molecule | activation molecule CD83 on DCs [1] | co-stimulating molecule CD40 on DCs [1] | induction of MHC type II molecules (HLA-DR) on DCs [1] | production of intracellular TGFβ in LDCs [2] | synthesis of IL-6 in LDCs [2] | synthesis of IL-10 in LDCs [2] | synthesis of IL-12 in LDCs [2] | production of IL-10 in intestinal DCs [3, 6] | production of IL-12 in intestinal DCs [3, 6] | production of IL-10 in colon mucosa DCs of a donor with unusually high IL-12 [3, 7] | production of IL-12 in colon mucosa DCs of a donor with unusually high IL-12 [3, 7] | production of IFNγ in T cells [4, 8] | production of IL-17 in T cells [4, 8] | CLA (marker of migration to skin) in T lymphocytes [4, 9] | integrin β7 (marker of migration to intestinal mucosa) in T lymphocytes [4, 9] | marker of migration to intestinal mucosa integrin β7 on DCs [1, 10] | marker of migration to skin CLA on DCs [1, 10] | production of IL-10 in T cells ([5]; FIG. 12) | production of TGFβ in T cells ([5]; FIG. 12) | lymphocytes expressing the marker of migration to skin (CLA) ([5]; FIG. 13) |
| --- | --- | --- | --- | --- | --- | --- | --- | --- | --- | --- | --- | --- | --- | --- | --- | --- | --- | --- | --- | --- |
| lipopolysaccharide [LPS, reference compound] | did induce overexpression | did induce overexpression | did induce overexpression | – | – | – | – | – | – | – | – | – | – | – | – | – | – | – | – | – |
| B1 | Nor did the peptide produce changes | Nor did the peptide produce changes | Nor did the peptide produce changes | did not affect | reduction in the synthesis | increase in the synthesis | reduction in the synthesis | increase in the production | absence of any increase in the production | increasing the production | completely cancelled the production | decreased | decreased | increased considerably | decrease | did not produce changes | did not produce changes | even greater increase in the production | even greater increase | greater number of lymphocytes |
